# Data as given in patent US20250332213A1, “EXTENDED-RELEASE INJECTABLE GEL FORMULATIONS CONTAINING ANGIOTENSIN-(1-7) OLIGOPEPTIDES OR VARIANTS THEREOF” (ProNeurogen, Inc., priority 2021, published 2025).
# Where no end group is shown, it is not given here. [ ]: non-standard residue; d: D form. glycan = not defined here
# Assays:
# [1] = Solubility assessment in various solvents; format: physicochemical; details: for Solubility (in words): in DMSO and PBS, did not require sonication
# Method: A small sample containing the (co-)polymer of interest (e.g., PLA or PLGA) and the ANG-(1-7) oligopeptide (total sample size: ˜1 mg) was placed into a microfuge tube. The solvent of interest (e.g., DMSO, NMP, BB, and/or BzOH) was added in μL aliquots until the drug compound was in solution. The samples were left overnight to fully dissolve and were sonicated the following day, as was necessary to fully solubilize the sample. Solubility was determined when/if a clear solution was obtained.
# Solubility assessment was performed for the ANG-(1-7) oligopeptide of the disclosure across multiple different solvents shown in Table 6, below. […] All other solvents required sonication to fully dissolve the ANG-(1-7) oligopeptide. DMSO is a suitable starting solvent for gel formulation evaluation.
# Solubility of PNA5 in various solvents was tested and for potential use with this peptide. […] All other solvents required sonication to fully dissolve PNA5. DMSO is a suitable starting solvent for gel formulation evaluation using the PNA5 peptide. Benzyl benzoate and benzyl alcohol may also be useful solvents or solvent additives.
# [2] = FDA-approved food additive; cited from earlier work
molecule,measurement,setting,value
"CC[C@H](C)[C@H](NC(=O)[C@H](Cc1ccc(O)cc1)NC(=O)[C@@H](NC(=O)[C@H](CCCNC(=N)N)NC(=O)[C@@H](N)CC(=O)O)C(C)C)C(=O)N[C@@H](Cc1c[nH]cn1)C(=O)N1CCC[C@H]1C(=O)O [ANG-(1-7), Asp-Arg-Val-Tyr-Ile-His-Pro]",Solubility (in words),[1],very high solubility
same,Concentration,[1]; solvent Benzyl Alcohol,250000 µg/mL
same,Concentration,[1]; solvent Benzyl Benzoate,250000 µg/mL
same,Concentration,[1]; solvent DMSO,500000 µg/mL
same,Concentration,[1]; solvent Ethoxylated Castor Oil,250000 µg/mL
same,Concentration,[1]; solvent Ethyl Laureate,250000 µg/mL
same,Concentration,[1]; solvent Ethyl Oleate,250000 µg/mL
same,Concentration,[1]; solvent NMP,250000 µg/mL
same,Concentration,[1]; solvent Oleic Acid,250000 µg/mL
same,Concentration,[1]; solvent PBS at pH 7.4,500000 µg/mL
same,Concentration,[1]; solvent Polyethylene Glycol 300,250000 µg/mL
same,Concentration,[1]; solvent Triacetin,250000 µg/mL
same,Concentration,[1]; solvent Triethyl Citrate,250000 µg/mL
"CC(=O)OC[C@H]1O[C@H](OC2(COC(C)=O)O[C@H](COC(=O)C(C)C)[C@@H](OC(=O)C(C)C)[C@@H]2OC(=O)C(C)C)[C@H](OC(=O)C(C)C)[C@@H](OC(=O)C(C)C)[C@@H]1OC(=O)C(C)C (some centres unmarked) [SAIB, sucrose acetoisobutyrate]",safe human daily intake,[2],up to 20 mg/kg
"PNA5: ANG-(1-7) variant, SEQ ID NO: 10: Asp Arg Val Tyr Ile His Ser* (glycosylated serine), carboxyl terminal NH2 ([dD][dR][dV][dY][dI][dH][dS](glycan)-NH2; reading uncertain; also: printed as Asp Arg Val Tyr Ile His Ser*)",Concentration,"[1]; Table 9, solvent Benzyl Alcohol (BA)",100000 µg/mL
same,Concentration,"[1]; Table 9, solvent Benzyl Benzoate (BB)",100000 µg/mL
same,Concentration,"[1]; Table 9, solvent DMA",100000 µg/mL
same,Concentration,"[1]; Table 9, solvent DMSO",500000 µg/mL
same,Concentration,"[1]; Table 9, solvent Ethoxylated Castor Oil",100000 µg/mL
same,Concentration,"[1]; Table 9, solvent Ethyl Laurate",100000 µg/mL
same,Concentration,"[1]; Table 9, solvent Ethyl Oleate",100000 µg/mL
same,Concentration,"[1]; Table 9, solvent NMP",100000 µg/mL
same,Concentration,"[1]; Table 9, solvent Oleic Acid",100000 µg/mL
same,Concentration,"[1]; Table 9, solvent PBS",100000 µg/mL
same,Concentration,"[1]; Table 9, solvent Polyethylene Glycol 300",100000 µg/mL
same,Concentration,"[1]; Table 9, solvent Triacetin",100000 µg/mL
same,Concentration,"[1]; Table 9, solvent Triethyl Citrate",100000 µg/mL
same,Solubility (in words),[1],high solubility
same,Observation at 0-24 hours,"[1]; solvent Benzyl Alcohol (BA), 100 mg/mL","Clear colorless, fluid"
same,Observation at 0-24 hours,"[1]; solvent Benzyl Benzoate (BB), 100 mg/mL","Clear colorless, fluid"
same,Observation at 0-24 hours,"[1]; solvent DMA, 100 mg/mL",Insoluble
same,Observation at 0-24 hours,"[1]; solvent DMSO, 500 mg/mL","Clear colorless, fluid"
same,Observation at 0-24 hours,"[1]; solvent Ethoxylated Castor Oil, 100 mg/mL",Insoluble
same,Observation at 0-24 hours,"[1]; solvent Ethyl Laurate, 100 mg/mL",Insoluble
same,Observation at 0-24 hours,"[1]; solvent Ethyl Oleate, 100 mg/mL",Insoluble
same,Observation at 0-24 hours,"[1]; solvent NMP, 100 mg/mL",Insoluble
same,Observation at 0-24 hours,"[1]; solvent Oleic Acid, 100 mg/mL",Insoluble
same,Observation at 0-24 hours,"[1]; solvent PBS, 100 mg/mL","Clear colorless, fluid"
same,Observation at 0-24 hours,"[1]; solvent Polyethylene Glycol 300, 100 mg/mL",Insoluble
same,Observation at 0-24 hours,"[1]; solvent Triacetin, 100 mg/mL",Insoluble
same,Observation at 0-24 hours,"[1]; solvent Triethyl Citrate, 100 mg/mL",Insoluble
